Here are results for three substances from patent publication US20090117169A1.

Experiment in all cases: cell-based or functional assay
One assay concerns the target Myc-tagged β-catenin.
For assay [1], the target named is endogenous β-catenin in rat vascular smooth muscle cells (RASMCs, A7r5) (rat) (UniProt Q9WU82).
The target of assay [2] is endogenous β-catenin in mouse aortic smooth muscle cells (MASMCs) (mouse) (UniProt Q02248).

Chain of UniProt Q9WU82 (Q9WU82 2-781): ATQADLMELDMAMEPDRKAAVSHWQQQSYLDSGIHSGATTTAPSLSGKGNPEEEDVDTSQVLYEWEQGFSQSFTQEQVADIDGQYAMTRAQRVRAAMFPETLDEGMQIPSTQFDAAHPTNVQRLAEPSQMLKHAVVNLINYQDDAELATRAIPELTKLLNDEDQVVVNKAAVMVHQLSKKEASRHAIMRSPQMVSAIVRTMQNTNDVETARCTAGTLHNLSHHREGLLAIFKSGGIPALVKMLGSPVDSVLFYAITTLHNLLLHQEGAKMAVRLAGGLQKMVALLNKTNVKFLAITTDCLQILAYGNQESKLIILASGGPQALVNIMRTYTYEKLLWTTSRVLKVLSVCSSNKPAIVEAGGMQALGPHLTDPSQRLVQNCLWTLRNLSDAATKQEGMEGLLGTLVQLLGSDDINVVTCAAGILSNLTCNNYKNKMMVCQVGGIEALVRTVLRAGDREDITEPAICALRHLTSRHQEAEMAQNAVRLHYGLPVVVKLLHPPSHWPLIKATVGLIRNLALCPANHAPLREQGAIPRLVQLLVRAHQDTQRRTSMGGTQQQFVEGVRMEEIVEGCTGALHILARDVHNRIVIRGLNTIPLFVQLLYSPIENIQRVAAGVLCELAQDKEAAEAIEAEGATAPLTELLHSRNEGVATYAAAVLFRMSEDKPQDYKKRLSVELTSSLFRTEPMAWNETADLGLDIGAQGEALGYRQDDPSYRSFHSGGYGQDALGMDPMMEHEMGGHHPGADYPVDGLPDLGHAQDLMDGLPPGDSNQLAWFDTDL

Turning to FLAG-tagged N-cadherin (receptor), the inhibition of β-catenin activation of Topflash (TCF-luciferase reporter) in A7r5 cells with Myc-tagged β-catenin turned out to be 55%. With “IL2R-Fat1IC (from UniProt P01589 22-259)”, the nuclear β-catenin/lamin A/C ratio in fractionated, LiCl-treated A7r5 cells in assay [1] came to 0.8. Further, in the assay with Myc-tagged β-catenin, the inhibition of β-catenin activation of Topflash (TCF-luciferase reporter) in A7r5 cells came to 40%. Consider “endogenous Fat1 in mouse aortic smooth muscle cells (MASMCs)”, for which the LiCl-stimulated TCF/β-catenin transcriptional activation (Topflash) in MASMCs after Fat1 knockdown (% higher than control siRNA) in assay [2] is 30.
